Measured values as given in EP4692116A1 (Kexing Biopharm Co., Ltd., dated 2026).

T1: human GDF15 protein (Novoprotein, Cat# DRA26) (human, UniProt Q99988 197-308)
T1 construct: Bought recombinant protein; also called growth differentiation factor 15; MIC-1
T1 sequence (looked up): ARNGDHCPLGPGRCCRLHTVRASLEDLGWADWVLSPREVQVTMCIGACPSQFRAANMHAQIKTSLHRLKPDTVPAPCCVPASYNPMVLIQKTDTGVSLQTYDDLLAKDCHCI

T2: Human GDNF protein (Novoprotein, Cat# C226) (human, UniProt P39905 78-211)
T2 construct: Bought protein
T2 sequence (looked up): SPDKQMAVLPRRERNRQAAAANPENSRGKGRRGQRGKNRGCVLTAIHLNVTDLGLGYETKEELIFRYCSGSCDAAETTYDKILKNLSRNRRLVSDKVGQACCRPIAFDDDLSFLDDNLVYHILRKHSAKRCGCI

T3: GDF15-Biotin protein (KACTUS, Cat# GDF-HM215B) (human, UniProt Q99988 197-308, limits assumed, biotin (site not stated))
T3 construct: Bought biotinylated protein; also called human GDF15
T3 sequence (looked up): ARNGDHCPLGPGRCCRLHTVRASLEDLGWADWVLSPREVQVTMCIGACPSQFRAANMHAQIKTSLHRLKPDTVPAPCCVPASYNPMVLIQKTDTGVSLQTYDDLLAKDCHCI


What was measured:
[1] = target: human GDF15 protein (Novoprotein, Cat# DRA26) (human) (UniProt Q99988); test: ELISA, human GDF15 coated, anti-human Fc-HRP detection
[2] = target: human GDF15 protein (Novoprotein, Cat# DRA26) (human) (UniProt Q99988); test: cell-based or functional assay
[3] = target: GDF15-Biotin protein (KACTUS, Cat# GDF-HM215B) (human) (UniProt Q99988); test: blocking ELISA: GFRAL coated, 20 ng/mL GDF15-Biotin with titrated antibody, Streptavidin-HRP
[4] = target: ARTN protein (Novoprotein, Cat# CR34) (human) (UniProt Q5T4W7); test: ELISA, ARTN coated, antibody from 2,000 nM, anti-human Fc-HRP detection
[5] = target: Human GDNF protein (Novoprotein, Cat# C226) (human) (UniProt P39905); test: ELISA, GDNF coated, antibody from 2,000 nM, anti-human Fc-HRP detection
[6] = target: T1, human GDF15 protein (Novoprotein, Cat# …); test: ELISA, human GDF15 coated, anti-human Fc-HRP detection
[7] = target: T2, Human GDNF protein (Novoprotein, Cat# …); test: ELISA, GDNF coated, antibody from 2,000 nM
[8] = target: T1, human GDF15 protein (Novoprotein, Cat# …); test: cell-based or functional assay
[9] = target: T3, GDF15-Biotin protein (KACTUS, Cat# …); test: blocking ELISA: GFRAL coated, 20 ng/mL GDF15-Biotin with titrated antibody, Streptavidin-HRP

Sequence of ARTN protein (Novoprotein, Cat# CR34) (human) (Q5T4W7 108-220 limits assumed): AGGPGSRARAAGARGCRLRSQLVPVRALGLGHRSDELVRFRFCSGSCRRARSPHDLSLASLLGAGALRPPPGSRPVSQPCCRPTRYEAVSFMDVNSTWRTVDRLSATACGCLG

EC50 [1] [nM]	IC50 of GDF15 reporter gene activity [2] [nM]	IC50 [3] [nM]	EC50 [4] [nM]	EC50 [5] [nM]	EC50 [6] [nM]	binding result [7]	IC50 of GDF15 reporter gene activity [8] [nM]	IC50 [9] [nM]	Molecule
0.0933	1.99	1.5	–	–	–	–	–	–	CTL002 (CatalYm humanized GDF15 monoclonal antibody, positive control)
0.0974	0.0475	0.11	97.1	278	–	–	–	–	PF-06946860 (Pfizer GDF15 monoclonal antibody, positive control)
–	–	–	–	–	0.382	–	–	–	LN11 GDF15 heavy chain single-domain antibody (VHH joined to human IgG1 Fc) (antibody, V domains shown) VH: QVQLVESGGGLVQPGGSLRLSCAASGFTIRTYTMSWYRQAPGKERALVAYITPGGPTYHIDSVKGRFTISRNNAENTVYLQMNSLKPEDTAVYYCGNGFGSWGQGTQVTVSS
–	–	–	–	–	0.0892	binds	0.0735	0.171	LN25 GDF15 heavy chain single-domain antibody (full-length, VHH joined to human IgG1 Fc) (antibody, V domains shown, expressed in CHO cells; No light chain; also called LN25 full-length) VH: QLQLVESGGGEVQPGGSLRLSCAASGATLDDLSIGWFRQAPGKGLEGVSCISSSDGSTYYADSVKGRFTISRDNAKNTAYLQMNSLRPEDTAVYYCAADREDCPVQPWGIVAGTSRGQGTQVTVSS
–	–	–	–	–	0.0988	–	0.0701	0.16	LN14 GDF15 heavy chain single-domain antibody (full-length, VHH joined to human IgG1 Fc) (antibody, V domains shown, expressed in CHO cells; No light chain; also called LN14 full-length) VH: QVQLVESGGGLVQPGGSLRLACAASGFTLDAYAVGWFRQAPGKNPEGVSCISSSDGSAYYADSVKGRFTISRDNAKNTVYLQMNSLKPGDTAVYYCAADLSCPVQIATFHSRGQGTQVTVSS
–	–	–	–	–	0.0858	binds	0.0719	0.147	LN13 GDF15 heavy chain single-domain antibody (full-length, VHH joined to human IgG1 Fc) (antibody, V domains shown, expressed in CHO cells; No light chain; also called LN13 full-length) VH: QLQLVESGGGLVQPGGSLRLSCAASGFTLDYYAIGWFRQAPGKGPEAVSCISSSDGSTYYSDSVKGRFTISRDNAKNTVYLQMNSLKPEDTAVYYCAAGEYGSDCPVQVGSWGQGTQVTVSS
–	–	–	–	–	0.0832	binds	0.0705	0.175	LN06 GDF15 heavy chain single-domain antibody (full-length, VHH joined to human IgG1 Fc) (antibody, V domains shown, expressed in CHO cells; No light chain; also called LN06 full-length) VH: QLQLVESGGGLVQPGGSLRLSCVASGFTLDDYAIGWFRQAPGKGLEGVSCISSSDESTYYADSVKGRFTISRDNAKNTAYLQMNSLKPEDTAIYYCAADTECPVQVTSMAWGQGTQVTVSS
–	–	–	–	–	0.0912	binds	0.0778	0.221	LN05 GDF15 heavy chain single-domain antibody (full-length, VHH joined to human IgG1 Fc) (antibody, V domains shown, expressed in CHO cells, Protein A purified; No light chain; also called LN05 full-length) VH: QVQLVESGGGLVQPGGSLRLSCAASGFTLDYYAIGWFRQAPGKGREGVSCISSNDGSTYYSDSVKGRFTTSRDNAKNTVYLQMNSLKPEDTAVYYCAADLTPCPVNPSVDHYWGQGTQVTVSS
